The values below come from publication PMC7884425, “HPF1 remodels the active site of PARP1 to enable the serine ADP-ribosylation of histones” (Nature Communications, 2021).

Changes are numbered by the printed parent chain.

Sequences and labels used below:
B1: human HPF1 (histone PARylation factor 1), wild-type (natural protein, UniProt Q9NWY4 1-346, looked up)
chain: MVGGGGKRRPGGEGPQCEKTTDVKKSKFCEADVSSDLRKEVENHYKLSLPEDFYHFWKFCEELDPEKPSDSLSASLGLQLVGPYDILAGKHKTKKKSTGLNFNLHWRFYYDPPEFQTIIIGDNKTQYHMGYFRDSPDEFPVYVGINEAKKNCIIVPNGDNVFAAVKLFLTKKLREITDKKKINLLKNIDEKLTEAARELGYSLEQRTVKMKQRDKKVVTKTFHGAGLVVPVDKNDVGYRELPETDADLKRICKTIVEAASDEERLKAFAPIQEMMTFVQFANDECDYGMGLELGMDLFCYGSHYFHKVAGQLLPLAYNLLKRNLFAEIIEEHLANRSQENIDQLAA
notes: HPF1 (C4orf27), human; TEV site ENLYFQG between the His tag and the protein; the tag was removed with TEV protease; also called C4orf27; not shown: His6, N-terminal, cleaved
B2: human PARP1-CAT ΔHD (661-678-GSGSGSGG-787-1014) (domain or fragment)
chain: TKSKLPKPVQDLIKMIFDGSGSGSGGKDPIDVNYEKLKTDIKVVDRDSEEAEIIRKYVKNTHATTHNAYDLEVIDIFKIEREGECQRYKPFKQLHNRRLLWHGSRTTNFAGILSQGLRIAPPEAPVTGYMFGKGIYFADMVSKSANYCHTSQGDPIGLILLGEVALGNMYELKHASHISKLPKGKHSVKGLGKTTPDPSANISLDGVDVPLGTGISSGVNDTSLLYNEYIVYDIAQVNLKYLLKLKFNFKTSLW
notes: PARP1, human, catalytic domain, residues 661-678; linker that replaces residues 679-786 (most of the HD subdomain); PARP1, human, catalytic domain (ART), residues 787-1014; also called CAT△HD; not shown: His6, N-terminal, cleaved

What all share (test): ITC; HPF1 wild-type or mutant 0.3 or 0.4 mM in the syringe, PARP1 CAT-ΔHD (or full-length CAT) 0.02 mM in the cell; 25 °C; 20 mM Tris-pH 8.0, 150 mM NaCl, 1 mM TCEP, 1 mM MgCl2
What all share (conditions): both partners purified
In general terms: Isothermal titration calorimetry measures the heat released or taken up as one component is titrated into another.

Experiment [1] addresses B2.
For experiment [2], the target named is B1.
Experiment [3] has as its target B1. This is another data set of the same source.
Experiment [4] addresses T1, human HPF1 K307S (human, UniProt Q9NWY4 1-346, K307S).
T1 construct: HPF1, human; not shown: His6, N-terminal, cleaved
T1 sequence (looked up): B1 chain with K307S

Experiment [5] concerns the target T2, human HPF1 E138K (human, UniProt Q9NWY4 1-346, E138K).
T2 construct: HPF1, human; not shown: His6, N-terminal, cleaved
T2 sequence (looked up): B1 chain with E138K

For experiment [6], the target named is T3, human HPF1 F139S (human, UniProt Q9NWY4 1-346, F139S).
T3 construct: HPF1, human; also called HPF F139S; not shown: His6, N-terminal, cleaved
T3 sequence (looked up): B1 chain with F139S

Experiment [7] addresses T4, human HPF1 K216E (human, UniProt Q9NWY4 1-346, K216E).
T4 construct: HPF1, human; not shown: His6, N-terminal, cleaved
T4 sequence (looked up): B1 chain with K216E

Experiment [8] concerns the target T5, human HPF1 R239A (human, UniProt Q9NWY4 1-346, R239A).
T5 construct: HPF1, human; not shown: His6, N-terminal, cleaved
T5 sequence (looked up): B1 chain with R239A

Experiment [9] concerns the target T6, human HPF1 E284A (human, UniProt Q9NWY4 1-346, E284A).
T6 construct: HPF1, human; not shown: His6, N-terminal, cleaved
T6 sequence (looked up): B1 chain with E284A

The target of experiment [10] is T7, human HPF1 F280A (human, UniProt Q9NWY4 1-346, F280A).
T7 construct: HPF1, human; not shown: His6, N-terminal, cleaved
T7 sequence (looked up): B1 chain with F280A

Experiment [11] deals with T8, human HPF1 C285H (human, UniProt Q9NWY4 1-346, C285H).
T8 construct: HPF1, human; not shown: His6, N-terminal, cleaved
T8 sequence (looked up): B1 chain with C285H

One may read the stoichiometry N as a count of units in the complex or per binding partner. With B1, the “stoichiometry N” value in experiment [1] came to 1.

One may read the Kd as the concentration at which binding is half-saturated. Read a high Kd as weaker binding. B2 yielded a Ka in experiment [2] of 758000 M⁻¹. Further, the Kd in [2] is roughly 1300 nM; in [3], 1500 nM; in experiment [4], 9300 nM; in experiment [5], 1700 nM; in experiment [6] it was 2400 nM; in [7], 1400 nM. Moreover, the dissociation constant Kd is 2400 nM in [8], 300 nM in experiment [9], 6000 nM in experiment [10] and 28700 nM in experiment [11].
